For this assay, the target named is T1, JARID2 (aa 1-450) (human, UniProt Q92833 1-450, K116me3 (trimethyl-lysine at 116)).
T1 sequence: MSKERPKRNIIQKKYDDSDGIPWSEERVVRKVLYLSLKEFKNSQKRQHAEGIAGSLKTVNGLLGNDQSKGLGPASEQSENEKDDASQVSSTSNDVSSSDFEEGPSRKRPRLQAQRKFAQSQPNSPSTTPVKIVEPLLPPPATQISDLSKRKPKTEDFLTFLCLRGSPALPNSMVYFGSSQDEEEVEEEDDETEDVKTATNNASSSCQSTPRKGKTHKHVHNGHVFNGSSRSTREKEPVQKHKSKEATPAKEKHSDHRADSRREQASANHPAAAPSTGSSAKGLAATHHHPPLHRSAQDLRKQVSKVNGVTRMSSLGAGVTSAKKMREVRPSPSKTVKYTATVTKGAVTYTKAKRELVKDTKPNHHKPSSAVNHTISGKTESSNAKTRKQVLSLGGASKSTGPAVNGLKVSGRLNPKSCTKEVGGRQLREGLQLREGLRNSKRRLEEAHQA
The assay is described as follows: cryo-EM structure.

We go through one molecule from article doi:10.1101/2020.04.20.049213 (bioRxiv, 2020).

B1: EED (aa 80-441) (domain or fragment)
chain: not shown
In the case of B1, the binding result was “binds”.
